Source: patent publication US20230340151A1 (Pfizer, published 2023)
Positions count from the first letter of the chain named.

T1: Human CD3 epsilon-delta (human)
T1 construct: Single-chain epsilon-linker-delta with His6; also called huCD3
T1 chain: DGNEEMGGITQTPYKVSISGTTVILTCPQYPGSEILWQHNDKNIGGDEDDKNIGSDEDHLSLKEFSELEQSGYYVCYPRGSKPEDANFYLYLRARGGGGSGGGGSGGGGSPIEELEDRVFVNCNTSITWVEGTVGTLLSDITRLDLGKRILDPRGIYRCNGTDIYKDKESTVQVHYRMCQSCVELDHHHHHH

B1: GUCY2C-0105 (bispecific antibody)
chain 1: DIVMTQSPSSLAVSVGEKVTVSCKSSQSLLYSSNQKNYLAWYQQRPGQSPKLLIYWASTRESGVPDRFTGSGSGTDFTLSISSVKAEDLAVYYCQQYYSYPTFGGGTKLEIKGGGSGGGGEVQLVESGGGLVQPGGSLRLSCAASGFTFSDYYMTWVRQAPGKGLEWVAFIRNRARGYTSDHNPSVKGRFTISRDNAKNSLYLQMNSLRAEDTAVYYCARDRPSYYVLDYWGQGTTVTVSSGCPPCPAPEAAGAPSVFLFPPKPKDTLMISRTPEVTCVVVDVSHEDPEVKFNWYVDGVEVHNAKTKPREEQYNSTYRVVSVLTVLHQDWLNGKEYKCKVSNKALPAPIEKTISKAKGQPREPQVCTLPPSREEMTKNQVSLWCLVKGFYPSDIAVEWESNGQPENNYKTTPPVLDSDGSFFLYSKLTVDKSRWQQGNVFSCSVMHEALHNHYTQKSLSLSPG
chain 2: DIVMTQSPDSLAVSLGERATINCKSSQSLFNVRSRKNYLAWYQQKPGQPPKLLISWASTRESGVPDRFSGSGSGTDFTLTISSLQAEDVAVYYCKQSYDLFTFGSGTKLEIKGGGSGGGGEVQLQQSGPELVKPGASVKISCKASGYSFTDYIMLWVKQSHGKSLEWIGNSNPYYGSTSYNLKFKGKATLTVDKSSSTAYMHLNSLTSEDSAVYYCARSGYYGSSPYWYFDVWGAGTTVTVSSGCPPCPAPEAAGAPSVFLFPPKPKDTLMISRTPEVTCVVVDVSHEDPEVKFNWYVDGVEVHNAKTKPREEQYNSTYRVVSVLTVLHQDWLNGKEYKCKVSNKALPAPIEKTISKAKGQPREPQVYTLPPCREEMTKNQVSLSCAVKGFYPSDIAVEWESNGQPENNYKTTPPVLDSDGSFFLVSKLTVDKSRWQQGNVFSCSVMHEALHNHYTQKSLSLSPG
notes: chimeric CD3-GUCY2c diabody-Fc, CD3-0004
B2: GUCY2C-0078 (bispecific antibody)
chain 1: DIVLTQSPASLAVSLGQRATISCRAGESVDNFDISFMNWFQQKPGQPPKLLIYAASNQGSGVPARFSGSGSGTDFSLNIHPMEEDDTAMYFCQQSKEVPYTFGGGTKLEIKGGGSGGGGEVQLVESGGGLVQPGGSLRLSCAASGFTFSDYYMTWVRQAPGKGLEWVAFIRNRARGYTSDHNPSVKGRFTISRDNAKNSLYLQMNSLRAEDTAVYYCARDRPSYYVLDYWGQGTTVTVSSGCPPCPAPEAAGAPSVFLFPPKPKDTLMISRTPEVTCVVVDVSHEDPEVKFNWYVDGVEVHNAKTKPREEQYNSTYRVVSVLTVLHQDWLNGKEYKCKVSNKALPAPIEKTISKAKGQPREPQVCTLPPSREEMTKNQVSLWCLVKGFYPSDIAVEWESNGQPENNYKTTPPVLDSDGSFFLYSKLTVDKSRWQQGNVFSCSVMHEALHNHYTQKSLSLSPG
chain 2: DIVMTQSPDSLAVSLGERATINCKSSQSLFNVRSRKNYLAWYQQKPGQPPKLLISWASTRESGVPDRFSGSGSGTDFTLTISSLQAEDVAVYYCKQSYDLFTFGSGTKLEIKGGGSGGGGEVQLQQSGAELARPGASVKLSCKASGYTFTKYWMQWIKQRPGQGLEWIGAIYPGDGFTTYTQKFKGKATLTADKSSNTAYMQLSSLASEDSAVYYCARRNYGRTYGGDYWGQGTSVTVSSGCPPCPAPEAAGAPSVFLFPPKPKDTLMISRTPEVTCVVVDVSHEDPEVKFNWYVDGVEVHNAKTKPREEQYNSTYRVVSVLTVLHQDWLNGKEYKCKVSNKALPAPIEKTISKAKGQPREPQVYTLPPCREEMTKNQVSLSCAVKGFYPSDIAVEWESNGQPENNYKTTPPVLDSDGSFFLVSKLTVDKSRWQQGNVFSCSVMHEALHNHYTQKSLSLSPG
B3: GUCY2C-1705 (antibody, human IgG1, V domains shown)
VH: EVQLVESGGGLVQPGGSLRLSCAASGFTFSSYWMHWVRQAPGKGLEWIGEIKPSRGFTNVHEKFKDRFTISVDKAKNSAYLQMNSLRAEDTAVYYCTRTITTTEGYWFFDVWGQGTLVTVSS
VL: DIQLTQSPSSLSASVGDRVTITCRASESVDYYGSSLMQWYQQKPGKAPKLLIYAASKLASGVPSRFSGSGSGTDFTLTISSLQPEDFATYYCQQTRKAYTFGQGTKLEIK
notes: full human IgG1/kappa
B4: GUCY2C-1640 (antibody, human IgG1, kappa, V domains shown)
VH: B3 VH with R55N, G56E, F57L
VL: DIQLTQSPSSLSASVGDRVTITCRASESVDYYGSSLLQWYQQKPGKAPKLLIYAASKLASGVPSRFSGSGSGTDFTLTISSLQPEDFATYYCQQTRKAYTFGQGTKLEIKR
B5: GUCY2C-1714 (antibody, human IgG1, V domains shown)
VH: B3 VH with S31H, Y32T, R55T, G56K, F57Y, T97A, T101F, T103R
VL: B3 VL with D30N, Y31W
notes: full human IgG1/kappa
B6: GUCY2C-1696 (antibody, human IgG1, V domains shown)
VH: B3 VH with S31T, Y32R, R55N, G56K, F57L, T97A, F109L, D110S, V111D
VL: B3 VL with S34H
notes: full human IgG1/kappa
B7: GUCY2C-1706 (antibody, human IgG1, V domains shown)
VH: B3 VH with Y32T, R55N, G56E, F57L
VL: B3 VL
notes: full human IgG1/kappa
B8: GUCY2C-1710 (antibody, human IgG1, V domains shown)
VH: B3 VH with F57W, T97A
VL: B3 VL with G33R, S34H
notes: full human IgG1/kappa
B9: GUCY2C-1703 (antibody, human IgG1, V domains shown)
VH: B3 VH with R55N, G56R, F57W, T58N
VL: B3 VL
notes: full human IgG1/kappa
B10: GUCY2C-1713 (antibody, human IgG1, V domains shown)
VH: B3 VH with S31H, Y32T, E104Q
VL: B3 VL with D30N, Y31W
notes: full human IgG1/kappa
B11: GUCY2C-1708 (antibody, human IgG1, V domains shown)
VH: B3 VH with S31R, Y32P, R55T, F57W, E104T
VL: B3 VL with G33K, S34H
notes: full human IgG1/kappa

Biological target: T1, Human CD3 epsilon-delta
Assay: direct ELISA, coated CD3 epsilon-delta
Description: Proteins were screened for binding to recombinant human, cyno and mouse proteins by ELISA. Purified human, cynomolgus, murine GUCY2c ECD or human CD3 epsilon-delta proteins were coated on Nunc-Maxisorb 384-well ELISA plates at 1 μg/ml in 20 μl in PBS-CMF (calcium and magnesium free) at 4 C. Plates were washed 3x with PBS+0.05% TWEEN20 and blocked with PBS+3% milk for 1 hr, shaking at RT. Blocking solution was removed and samples serially diluted in block were added and incubated for 1 hr shaking at RT. Plates were washed 3x as before and a secondary antibody was added (goat anti-hu IgG Fc-HRP—Southern Biotech L2047-05, 1:5000;
goat anti-mouse IgG Fc-HRP—Thermo Scientific, diluted 1:4,000; or mouse anti-penta-HIS-HRP, Qiagen, 1:1000), followed by shaking for 1 hr at RT. Plates were washed as before and signal was developed using TMB, the reaction stopped with H2SO4 and the absorbance read at 450 nm on an Envision plate reader (Perkin Elmer). An alternative detection method was also periodically employed in place of TMB/H2SO4. […] Time-resolved fluorescence was then measured at 320 and 615 nm using an EnVision® plate reader (EnVision® Multilabel Plate Reader, Perkin Elmer) following the manufacturer's methods.

| Binder | EC50 |
| --- | --- |
| B1 | 0.355 nM |
| B2 | 1.45 nM |

These binders were tested against T2, Human GUCY2C ECD Cleaved (human, UniProt P25092 24-430) (assay: SPR, human IgG1 against human GUCY2c ECD).
T2 construct: also called human GUCY2c extracellular domain protein (ECD)
T2 sequence (P25092 other isoform, or with tags, fused parts or gaps): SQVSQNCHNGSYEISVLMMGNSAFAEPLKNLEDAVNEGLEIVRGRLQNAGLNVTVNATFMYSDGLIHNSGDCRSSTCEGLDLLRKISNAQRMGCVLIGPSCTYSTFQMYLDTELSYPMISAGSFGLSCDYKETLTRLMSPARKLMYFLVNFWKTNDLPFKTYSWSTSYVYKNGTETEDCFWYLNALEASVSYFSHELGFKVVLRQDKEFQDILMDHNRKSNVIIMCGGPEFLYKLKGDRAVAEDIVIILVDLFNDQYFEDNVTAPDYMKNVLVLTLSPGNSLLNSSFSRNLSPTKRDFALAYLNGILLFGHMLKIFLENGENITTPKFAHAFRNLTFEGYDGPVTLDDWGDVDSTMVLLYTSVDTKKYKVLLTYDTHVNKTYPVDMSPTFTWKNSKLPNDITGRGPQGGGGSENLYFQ

| Binder | Kd | koff | kon |
| --- | --- | --- | --- |
| B3 | 6.25 nM | 0.00149 s⁻¹ | 239000 M⁻¹ s⁻¹ |
| B4 | 13.9 nM | 0.00271 s⁻¹ | 195000 M⁻¹ s⁻¹ |
| B5 | 10.3 nM | 0.00124 s⁻¹ | 121000 M⁻¹ s⁻¹ |
| B6 | 12.4 nM | 0.00179 s⁻¹ | 144000 M⁻¹ s⁻¹ |
| B7 | 9.75 nM | 0.00193 s⁻¹ | 198000 M⁻¹ s⁻¹ |
| B8 | 5.94 nM | 0.00147 s⁻¹ | 248000 M⁻¹ s⁻¹ |
| B9 | 10.3 nM | 0.00214 s⁻¹ | 210000 M⁻¹ s⁻¹ |
| B10 | 6.71 nM | 0.00108 s⁻¹ | 161000 M⁻¹ s⁻¹ |
| B11 | 9.44 nM | 0.00132 s⁻¹ | 140000 M⁻¹ s⁻¹ |

These binders were tested against T3, Purified human GUCY2c ECD (recombinant, construct not stated) (human, UniProt P25092 24-430) (assay: direct ELISA, coated GUCY2c ECD).
T3 construct: also called recombinant human GUCY2c; recombinant GUCY2c protein
T3 sequence (P25092 24-430 limits assumed): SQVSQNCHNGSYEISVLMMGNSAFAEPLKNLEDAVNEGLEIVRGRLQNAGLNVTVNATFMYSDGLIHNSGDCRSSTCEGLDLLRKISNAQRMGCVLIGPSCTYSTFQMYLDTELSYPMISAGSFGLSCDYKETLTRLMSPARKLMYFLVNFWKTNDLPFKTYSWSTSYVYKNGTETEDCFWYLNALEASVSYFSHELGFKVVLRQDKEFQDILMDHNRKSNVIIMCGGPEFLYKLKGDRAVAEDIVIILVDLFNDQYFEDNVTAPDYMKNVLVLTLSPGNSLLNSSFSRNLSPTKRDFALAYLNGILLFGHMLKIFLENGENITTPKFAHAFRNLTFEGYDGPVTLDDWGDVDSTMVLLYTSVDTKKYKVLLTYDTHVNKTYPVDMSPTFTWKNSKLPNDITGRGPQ

| Binder | EC50 |
| --- | --- |
| B1 | 79.8 nM |
| B2 | 23.5 nM |

These binders were tested against Human GUCY2c on tumor cells (T84, HT55) (human, UniProt P25092 24-1073) (assay: cell-based or functional assay).
Chain of Human GUCY2c on tumor cells (T84, HT55) (P25092 24-1073 limits assumed): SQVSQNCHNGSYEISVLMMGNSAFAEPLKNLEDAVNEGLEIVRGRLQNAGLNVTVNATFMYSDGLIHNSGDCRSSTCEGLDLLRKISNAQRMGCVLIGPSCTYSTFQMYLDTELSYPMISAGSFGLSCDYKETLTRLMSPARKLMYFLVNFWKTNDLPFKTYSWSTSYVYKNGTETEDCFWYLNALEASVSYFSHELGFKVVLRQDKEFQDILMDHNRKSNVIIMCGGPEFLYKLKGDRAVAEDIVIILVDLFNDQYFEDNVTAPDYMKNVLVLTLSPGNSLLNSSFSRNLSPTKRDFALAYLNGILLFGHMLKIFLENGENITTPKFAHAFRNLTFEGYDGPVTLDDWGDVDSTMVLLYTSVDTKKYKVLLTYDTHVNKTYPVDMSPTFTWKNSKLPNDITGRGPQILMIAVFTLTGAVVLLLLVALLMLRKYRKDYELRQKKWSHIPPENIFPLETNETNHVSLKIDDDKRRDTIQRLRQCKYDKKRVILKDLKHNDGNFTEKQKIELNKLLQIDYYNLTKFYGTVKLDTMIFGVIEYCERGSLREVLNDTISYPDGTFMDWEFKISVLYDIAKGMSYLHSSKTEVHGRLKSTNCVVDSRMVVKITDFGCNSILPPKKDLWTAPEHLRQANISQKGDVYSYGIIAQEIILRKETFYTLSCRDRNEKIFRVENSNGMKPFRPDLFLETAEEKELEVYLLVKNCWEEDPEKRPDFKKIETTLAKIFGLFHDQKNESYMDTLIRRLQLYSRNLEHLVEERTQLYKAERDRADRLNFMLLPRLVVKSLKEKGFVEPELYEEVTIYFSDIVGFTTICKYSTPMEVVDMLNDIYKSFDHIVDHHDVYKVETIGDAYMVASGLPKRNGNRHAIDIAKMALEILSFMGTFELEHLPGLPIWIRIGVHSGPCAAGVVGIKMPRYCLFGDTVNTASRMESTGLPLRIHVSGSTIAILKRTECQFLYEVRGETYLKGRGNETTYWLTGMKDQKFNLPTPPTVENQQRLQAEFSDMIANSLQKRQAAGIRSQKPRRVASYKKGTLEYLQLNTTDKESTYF

| Binder | T84 tumor cell EC50 (T cell cytotoxicity, E:T 10:1) |
| --- | --- |
| B1 | 7.51 nM |
| B2 | 7.8 nM |

Each binder was assayed against T4, Human GUCY2C ECD-muIgG2a (human) (assay: sandwich ELISA: CD3 epsilon-delta coated, GUCY2c ECD-mIgG2a Fc in solution).
T4 construct: also called human GUCY2c ECD-mouse IgG2a Fc fusion protein; huGUCY2c-mIgG2a
T4 sequence (chain, as listed by the source limits assumed): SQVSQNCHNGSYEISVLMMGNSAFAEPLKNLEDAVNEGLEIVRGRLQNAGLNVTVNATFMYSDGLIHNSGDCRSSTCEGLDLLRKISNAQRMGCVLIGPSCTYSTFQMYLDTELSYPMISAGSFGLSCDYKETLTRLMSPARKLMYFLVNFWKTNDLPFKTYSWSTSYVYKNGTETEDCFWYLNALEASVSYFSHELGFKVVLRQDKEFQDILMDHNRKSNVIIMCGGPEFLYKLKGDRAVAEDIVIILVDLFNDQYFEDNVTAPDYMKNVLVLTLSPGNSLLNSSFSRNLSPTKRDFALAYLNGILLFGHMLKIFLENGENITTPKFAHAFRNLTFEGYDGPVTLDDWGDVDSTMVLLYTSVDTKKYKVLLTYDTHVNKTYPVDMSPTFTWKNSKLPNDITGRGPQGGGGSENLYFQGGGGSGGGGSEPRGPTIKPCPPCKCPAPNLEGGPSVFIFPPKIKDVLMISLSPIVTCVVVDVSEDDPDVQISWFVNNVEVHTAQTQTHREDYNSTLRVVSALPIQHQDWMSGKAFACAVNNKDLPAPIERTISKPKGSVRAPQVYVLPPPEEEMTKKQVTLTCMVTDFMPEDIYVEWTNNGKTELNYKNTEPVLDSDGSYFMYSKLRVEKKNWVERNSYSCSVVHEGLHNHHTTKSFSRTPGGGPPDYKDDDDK

| Binder | EC50 |
| --- | --- |
| B1 | 5.04 nM |
| B2 | 9.68 nM |
